Starred links: 1 amine or outer side, 2 acyl side, 3 side chain; linkers in the order of their positions; H or OH if unused. Non-standard residues stand in square brackets, D forms with d. Groups on a side chain read outwards from the residue. No end group written: not given here. *: point of attachment. C20 diacid = O=C(O)CCCCCCCCCCCCCCCCCCC(=O)*; γGlu = O=C(O)[C@H](CCC(=O)[*:2])N[*:1]; εLys = N[C@@H](CCCCN[*:1])C(=O)[*:2]; Aib = CC(C)(N)C(=O)O
T1: human GIP receptor (human, UniProt P48546 22-466)
T1 sequence (looked up): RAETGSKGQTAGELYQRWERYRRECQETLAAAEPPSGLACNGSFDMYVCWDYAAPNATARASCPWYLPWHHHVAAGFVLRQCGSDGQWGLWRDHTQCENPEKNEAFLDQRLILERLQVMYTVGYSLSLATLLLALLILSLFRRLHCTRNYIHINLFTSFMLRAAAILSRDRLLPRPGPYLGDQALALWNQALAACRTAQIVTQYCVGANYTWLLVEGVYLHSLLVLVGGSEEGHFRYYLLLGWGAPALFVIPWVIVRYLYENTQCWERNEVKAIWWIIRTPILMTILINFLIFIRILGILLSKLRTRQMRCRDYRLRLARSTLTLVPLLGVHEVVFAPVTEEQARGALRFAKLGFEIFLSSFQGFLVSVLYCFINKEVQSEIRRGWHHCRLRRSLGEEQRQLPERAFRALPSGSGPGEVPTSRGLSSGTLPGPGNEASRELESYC

T2: human neuropeptide Y2 (NPY2) receptor (human, UniProt P49146 1-381)
T2 sequence (looked up): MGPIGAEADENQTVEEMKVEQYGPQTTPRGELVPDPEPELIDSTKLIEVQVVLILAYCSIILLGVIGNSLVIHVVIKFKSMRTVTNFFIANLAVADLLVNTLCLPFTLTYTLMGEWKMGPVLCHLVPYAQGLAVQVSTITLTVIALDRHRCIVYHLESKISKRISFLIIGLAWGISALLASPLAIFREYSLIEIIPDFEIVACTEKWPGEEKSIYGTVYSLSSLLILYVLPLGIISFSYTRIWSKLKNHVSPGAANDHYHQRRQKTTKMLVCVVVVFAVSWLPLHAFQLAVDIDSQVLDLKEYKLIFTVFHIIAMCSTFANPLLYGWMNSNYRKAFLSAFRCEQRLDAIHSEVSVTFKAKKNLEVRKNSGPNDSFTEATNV


Legend:
Experiment in all cases: cell-based or functional assay
[1] = target: T1, human GIP receptor
[2] = target: T2, human neuropeptide Y2 (NPY2) receptor
[3] = target: human GLP-1 receptor (human, UniProt P43220 24-463)

Binder | EC50, CreLuc assay, 0.5% hP [1] [nM] | EC50, CreLuc assay, 100% hP [1] [nM] | EC50, CreLuc assay, 0.5% hP [2] [nM] | EC50, CreLuc assay, 100% hP [2] [nM] | EC50, CreLuc assay, 0.5% hP [3] [nM] | EC50, CreLuc assay, 100% hP [3] [nM]
YXEGTFTSDYSIXLAAAAQXAFVEWLIKGGPSSGASLRHYYNWLTRQRY (Aib at 2, 13, 20; K28 side chain: C20DA-gGlu-gGlu-gGlu-gGlu-gGlu-gGlu-eLys; C-terminal NH2) [Compound 20] | 0.93 | 7.75 | 19.1 | 62 | 0.87 | 24.3
YXEGTFTSDYSIXLEKQAQXAFVEWLIKGGPSSGASLRHYYNWLTRQRY (Aib at 2, 13, 20; DHis 39; DArg 46; DTyr 49; K28 side chain: C20DA-gGlu-gGlu-gGlu-gGlu-gGlu-gGlu-eLys; C-terminal NH2) [Compound 21] | 0.14 | 0.87 | > 99.9 | > 999 | 0.11 | 1.66
YXEGTFTSDYSIXLEKQAQXAFVEWLIKGGPSSGASLRHYYNWLTRQRY (Aib at 2, 13, 20; DLeu 37; DHis 39; DArg 46; DTyr 49; K28 side chain: C20DA-gGlu-gGlu-gGlu-gGlu-gGlu-gGlu-eLys; C-terminal NH2) [Compound 5] | 0.17 | 1.07 | > 99.9 | > 999 | 0.11 | 1.43
YXEGTFTSDYSIXLEEQAQXAFVEWLIKGGPSSGQSLRHYYNWLTRQRY (Aib at 2, 13, 20; K28 side chain: C20DA-gGlu-gGlu-gGlu-gGlu-gGlu-gGlu-eLys; C-terminal NH2) [Compound 31] | 0.15 | 2.63 | 13.4 | 43.5 | 0.06 | 2.94
YXEGTFTSDYSIXLEKQAQXAFVEWLIKGGPSSGASXRHYYNWLTXQRY (Aib at 2, 13, 20, 37; hArg 46; DTyr 49; K28 side chain: C20DA-gGlu-gGlu-gGlu-gGlu-gGlu-gGlu-eLys; C-terminal NH2) [Compound 26] | 0.09 | 0.7 | > 100 | 670 | 0.07 | 1.18
YXEGTFTSDYSIXLEKQAQXAFVQWLIKGGPESGASLRHYYNWLTRQRY (Aib at 2, 13, 20; K28 side chain: C20DA-gGlu-gGlu-gGlu-gGlu-gGlu; C-terminal NH2) [Compound 29] | 0.23 | 4.08 | 8.79 | 74.5 | 0.13 | 6.74
YXEGTFTSDYSIXLEXKAQXEFVEWLIKGGPSSGASLRHYYNWLTRQRY (Aib at 2, 13, 16, 20; K28 side chain: C20DA-gGlu-gGlu-gGlu-gGlu-gGlu-gGlu-eLys; C-terminal NH2) [Compound 24] | 4.1 | 17.7 | 26.8 | 94.5 | 1.77 | 15.3
YXEGTFTSDYSIXLEAAKQXAFVEWLIKGGPSSGASLRHYYNWLTRQRY (Aib at 2, 13, 20; K28 side chain: C20DA-gGlu-gGlu-gGlu-gGlu-gGlu-gGlu-eLys; C-terminal NH2) [Compound 25] | 0.98 | 6.97 | 13 | 38.3 | 0.67 | 14.2
YXEGTFTSDYSIXLEKQAQXAFVEWLIKGGPSSGVSIRHYYNWLTRQRY (Aib at 2, 13, 20; K28 side chain: C20DA-gGlu-gGlu-gGlu-gGlu-gGlu-gGlu-eLys; C-terminal NH2) [Compound 27] | 0.17 | 1.11 | 7.16 | 21 | 0.1 | 1.97
YXEGTFTSDYSIXLEEQAQXAFVQWLIKGGPSSGASLRHYYNWLTRQRY (Aib at 2, 13, 20; K28 side chain: C20DA-gGlu-gGlu-Glu-gGlu-gGlu-gGlu-eLys; C-terminal NH2) [Compound 30] | 0.13 | 1.06 | 13.3 | 56.2 | 0.08 | 1.08
YXEGTFTSDYSIXLEKQAQXAFVQWLIKGGPESGASLRHYYNWLTRQRY (Aib at 2, 13, 20; K28 side chain: C20DA-gGlu-gGlu-gGlu-gGlu-gGlu-OEG-OEG; C-terminal NH2) [Compound 32] | 0.16 | 1.15 | 12.2 | 49.3 | 0.07 | 4.74
YXEGTFTSDYSIXLEKQAQXAFVQWLIKGGQSSYASLRHYYNWLTRQRY (Aib at 2, 13, 20; K28 side chain: C20DA-gGlu-gGlu-gGlu-gGlu-gGlu-Glu-eLys; C-terminal NH2) [Compound 22] | 0.54 | 6.62 | 8.06 | 21.3 | 0.45 | 15.9
Y[Aib]EGTFTSDYSI[Aib]LEKQAQ[Aib]EFVQWLIKGGPSSGASLRHYYNWLTRQRY-NH2 (not fully specified (residue 28); also: TFA salt) [Compound 28] | 0.38 | 3.08 | 10.3 | 46 | 0.22 | 6.51
Y[Aib]EGTFTSDYSI[Aib]LEKQAQ[Aib]AFVQWLIK([εLys-Glu-γGlu-γGlu-γGlu-γGlu-C20 diacid])GGPEYYASLRHYYNWLTRQRY-NH2 (also: TFA salt) [Compound 23] | 0.56 | 11.4 | 10.1 | 72.4 | 0.47 | 37.7
YXEGTFTSDYSIXLEKQAQXAFVEWLIKGGPSSGASXRHYXNRXTRQRY (Aib at 2, 13, 20, 37, 41, 44; K28 side chain: C20DA-gGlu-gGlu-gGlu-gGlu-gGlu-gGlu-eLys; C-terminal NH2) [Compound 4] | 0.25 | 1.66 | 66.4 | 182 | 0.09 | 1.74

Other lines, results leading:

EC50, CreLuc assay, 0.5% hP [1] [nM] | EC50, CreLuc assay, 100% hP [1] [nM] | EC50, CreLuc assay, 0.5% hP [2] [nM] | EC50, CreLuc assay, 100% hP [2] [nM] | EC50, CreLuc assay, 0.5% hP [3] [nM] | EC50, CreLuc assay, 100% hP [3] [nM] | Binder
0.13 | 1.61 | 14.6 | 66.7 | 0.09 | 1.39 | Y[Aib]EGTFTSDYSI[Aib]LEEQAQ[Aib]AFVQWLIK([εLys-γGlu-γGlu-γGlu-γGlu-γGlu-C20 diacid])GGPSSGASLRHYYNWLTRQRY-NH2 (also: TFA salt) [Compound 34]
0.24 | 1.44 | 9.53 | 35.5 | 0.11 | 5.13 | YXEGTFTSDYSIXLEKQAQXAFVQWLIKGGPESGASLRHYYNWLTRQRY (Aib at 2, 13, 20; K28 side chain: C20DA-gGlu-gGlu-gGlu-gGlu-gGlu-gGlu-eLys; C-terminal NH2) [Compound 37]
0.48 | 4.36 | 11.9 | 26.4 | 0.46 | 9.04 | YXEGTFTSDYSIXLEKQAQXAFVEWLIKGGPSSYVSLRHYYNWLTRQRY (Aib at 2, 13, 20; K28 side chain: C20DA-gGlu-gGlu-gGlu-gGlu-gGlu-gGlu-eLys; C-terminal NH2) [Compound 40]
0.06 | 0.96 | 11.6 | 29.3 | 0.07 | 1.3 | YXEGTFTSDYSIXLEKQAQXAFVQWLIKGGPSSGESLRHYYNWLTRQRY (Aib at 2, 13, 20; K28 side chain: C20DA-gGlu-gGlu-gGlu-gGlu-gGlu-gGlu-eK; C-terminal NH2) [Compound 35]
0.26 | 1.57 | 8.03 | 26.8 | 0.28 | 7.78 | YXEGTFTSDYSIXLEKQAQXEFVQWLIKGGPSSGASLRHYYNWLTRQRY (Aib at 2, 13, 20; K28 side chain: C20DA-gGlu-gGlu-gGlu-gGlu-gGlu-OEG-OEG; C-terminal NH2) [Compound 36]
0.25 | 1.51 | 9.93 | 26.7 | 0.14 | 3.17 | YXEGTFTSDYSIXLEKQAQXAFVEWLIKGGPSSAVSLRHYYNWLTRQRY (Aib at 2, 13, 20; K28 side chain: C20DA-gGlu-gGlu-gGlu-gGlu-gGlu-gGlu-eLys; C-terminal NH2) [Compound 33]
0.06 | 0.4 | 26.9 | 61.5 | 0.09 | 0.82 | YXEGTFTSDYSIXLEKQAQXAFVEWLIKGGPSSGASXRHYYNWLTRQRY (Aib at 2, 13, 20, 37; NMeR 48; K28 side chain: C20DA-gGlu-gGlu-gGlu-gGlu-gGlu-gGlu-eLys; C-terminal NH2) [Compound 39]
0.04 | 0.7 | 6.9 | 17.8 | 0.06 | 1.28 | YXEGTFTSDYSIXLEKQAQXAFVEWLIKGGPSSGVSXRHYYNWLTRQRY (Aib at 2, 13, 20, 37; K28 side chain: C20DA-gGlu-gGlu-gGlu-gGlu-gGlu-gGlu-eLys; C-terminal NH2) [Compound 38]

— patent US20240247080A1, “GLP1/GIP/NPY2 RECEPTOR TRIPLE AGONISTS” (Boehringer Ingelheim International GmbH, priority 2022, published 2024)
